Assay results as given in patent US20160251440A1.

Experiments:
[1] = target: human CXCR4 (on cells, viral lipoparticles or membrane extracts) (human) (UniProt P61073); assay: ELISA on coated CXCR4 viral lipoparticles (upper right panel)
[2] = target: recombinant IL-3Rα ectodomain (human) (UniProt P26951); assay: ELISA on recombinant IL-3Ra ectodomain (panel 'IL-3Ra ELISA', lower left)
[3] = target: human CXCR4 (on cells, viral lipoparticles or membrane extracts) (human) (UniProt P61073); assay: cell-based or functional assay
[4] = target: human IL-23R, cell-expressed (human) (UniProt Q5VWK5); assay: cell-based or functional assay
[5] = target: human CXCR4 (on cells, viral lipoparticles or membrane extracts) (human) (UniProt P61073); assay: [125I]-SDF-1 displacement, Hek-CXCR4 membrane extracts
[6] = target: human CXCR4 (on cells, viral lipoparticles or membrane extracts) (human) (UniProt P61073); assay: FACS displacement of 30 nM biotin-SDF-1, Caki-CXCR4 cells
[7] = target: human CXCR4 (on cells, viral lipoparticles or membrane extracts) (human) (UniProt P61073); assay: FACS, Caki-CXCR4 cells

Chain of human CXCR4 (on cells, viral lipoparticles or membrane extracts) (human) (P61073 whole entry, the tested form may be a part): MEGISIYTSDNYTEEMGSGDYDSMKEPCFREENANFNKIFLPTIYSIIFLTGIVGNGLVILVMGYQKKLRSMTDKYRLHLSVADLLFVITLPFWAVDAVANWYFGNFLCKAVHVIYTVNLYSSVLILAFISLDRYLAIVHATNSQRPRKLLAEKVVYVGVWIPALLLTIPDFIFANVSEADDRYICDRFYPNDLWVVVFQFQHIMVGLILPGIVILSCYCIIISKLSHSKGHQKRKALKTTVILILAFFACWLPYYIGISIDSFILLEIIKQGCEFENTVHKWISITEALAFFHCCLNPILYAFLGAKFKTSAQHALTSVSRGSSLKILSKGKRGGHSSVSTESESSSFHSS
Chain of human IL-23R, cell-expressed (human) (Q5VWK5 24-629): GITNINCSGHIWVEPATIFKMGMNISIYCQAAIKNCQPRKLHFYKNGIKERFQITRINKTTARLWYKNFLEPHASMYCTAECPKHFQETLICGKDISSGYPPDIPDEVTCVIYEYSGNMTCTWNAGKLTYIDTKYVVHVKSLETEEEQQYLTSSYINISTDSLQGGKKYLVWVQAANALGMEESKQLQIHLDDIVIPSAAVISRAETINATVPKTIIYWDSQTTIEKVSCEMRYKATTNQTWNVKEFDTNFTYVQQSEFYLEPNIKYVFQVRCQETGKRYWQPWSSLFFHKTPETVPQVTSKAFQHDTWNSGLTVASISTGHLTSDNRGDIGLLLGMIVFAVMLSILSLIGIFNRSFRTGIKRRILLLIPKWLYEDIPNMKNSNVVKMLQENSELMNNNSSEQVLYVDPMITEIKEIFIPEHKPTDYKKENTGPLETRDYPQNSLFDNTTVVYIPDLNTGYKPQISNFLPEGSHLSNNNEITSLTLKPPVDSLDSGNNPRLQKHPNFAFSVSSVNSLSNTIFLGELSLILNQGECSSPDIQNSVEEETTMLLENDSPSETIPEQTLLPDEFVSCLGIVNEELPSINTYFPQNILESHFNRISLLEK
Chain of recombinant IL-3Rα ectodomain (human) (P26951 19-305): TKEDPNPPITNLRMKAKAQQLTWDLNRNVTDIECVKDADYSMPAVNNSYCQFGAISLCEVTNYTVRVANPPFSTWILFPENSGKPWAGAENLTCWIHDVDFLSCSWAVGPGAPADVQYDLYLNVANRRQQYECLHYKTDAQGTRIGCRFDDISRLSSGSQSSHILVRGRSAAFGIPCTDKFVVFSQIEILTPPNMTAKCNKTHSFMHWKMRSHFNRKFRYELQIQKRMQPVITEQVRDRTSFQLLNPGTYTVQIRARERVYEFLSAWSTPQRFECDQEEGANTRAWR

B1: 14D09-35GS-55A01 (bispecific antibody)
chain: EVQLVESGGGLVQAGGSLRLSCVASGISSSKRNMGWYRQAPGKQRESVATISSGGNKDYTDAVKDRFTISRDTTKNTVYLQMNSLKPEDTAVYYCKIEAGTGWATRRGYTYWGQGTLVTVSSGGGGSGGGGSGGGGSGGGGSGGGGSGGGGSGGGGSEVQLVESGGGSVQAGGSLRLSCTTSGRALNMYVMGWFRQAPGNEREFVAATSSSGGSTSYPDSVKGRFTISRDNAKNTVYLQMNSLKPEDTAAYRCAASPYVSTPTMNILEEYRYWGQGTLVTVSS
EC50 (read off the curve) [1]: 7 nM | EC50 (read off the curve) [2]: 1 nM | Fold inc. vs CXCR4#1, Jurkat E6-1 [3]: 0.87 fold | Fold inc. vs CXCR4#1, MOLM-13 [3]: 2.39 fold | IC50, CXCL-12 chemotaxis, Jurkat E6-1 [3]: 12 nM | IC50, CXCL-12 chemotaxis, MOLM-13 [3]: 3.6 nM

B2: IL23R#19-35GS-CD4#8 (bispecific antibody)
chain: EVQLVESGGGLVQPGGSLTLSCVASGRTFSTDVMGWFRQAPGKEREFVAAHRTSGISTVYAASVKGRFTISRDNAKNTVYLGMKSLKPEDTAVYVCAAGSDASGGYDYWGQGTLVTVSSGGGGSGGGGSGGGGSGGGGSGGGGSGGGGSGGGGSEVQLVESGGGSVQPGGSLTLSCGTSGRTFNVMGWFRQAPGKEREFVAAVRWSSTGIYYTQYADSVKSRFTISRDNAKNTVYLEMNSLKPEDTAVYYCAADTYNSNPARWDGYDFRGQGTLVTVSS
IC50, IL-17 release, PBMC D840 [4]: 58.9 nM | fold ctrl, IL-17 release [4]: 1.7 fold

B3: 238D4 (VHH, from a related filing)
VHH: EVQLMESGGGLVQAGGSLRLSCAASGRTFNNYAMGWFRRAPGKEREFVAAITRSGVRSGVSAIYGDSVKDRFTISRDNAKNTLYLQMNSLKPEDTAVYTCAASAIGSGALRRFEYDYSGQGTQVTVSS
Ki [5]: 5.4 nM | IC50 [6]: 2.1 nM | IC50, SDF-1 chemotaxis, Jurkat [3]: 7.6 nM | EC50 [7]: 3.4 nM
